Assay results as given in the nanobody polyreactivity screen of Harvey et al. (2022).

Assay: yeast display, Sf9 membrane polyspecificity reagent, FACS + sequencing; frameworks hold sequencing errors
How it was run: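 In a synthetic yeast display library (Saccharomyces cerevisiae BJ5465), nanobody expression was induced with galactose for 36–48 hours. FACS gates were set low and high (top ~1%) using anti-HA fluorescence for expression and streptavidin fluorescence for binding of the Sf9 membrane reagent. Each polyreactivity label is drawn from the gate of origin.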

Row | Sequence | polyreactivity (PSR sort gate)
1 | QVQLVESAGGLVQAGGSLRLSCPASGRTSVINAMGWYRQSPGKERELVAAISSDGITNYADSVKGRFTISRDNAKNTVYLQMISLKPEDTAVYYCAAEWYYVYIAPYDYWGQGTQVTVSS | low polyreactivity
2 | QVQLVESAGGLVQAGGSLRLSCYASGSIFTRNAMGWYRQAPGKERELVASISYSGGNTYYADSVKGRFTISRDNAKNTVYLQMNSLKPEDTAVYYCAALYSVYRDGYYWGQGTQVTVSS | high polyreactivity
3 | QVQLVESAGGLVQAGGSLRLSSDASGFTFYRYAIGWYIQAPGKEREFVAAISWRGTSTYYADSVKGRFKISRDNANNTVYLQMNSLKPEETAVYYCTARRDICWGYHMDYWGQGTQVTVSS | high polyreactivity
4 | QVQLVESAGGLVQAGGSLSLICAASGIIFGGNAMGWSRQAPGKERELVAAISRSGGSTYYADSVKGRFTISRDNAKNTVYLQMTSLKPEDTAVYYCNAYYRYFRSIYDSCGQGTQVTVSS | high polyreactivity
5 | QVQLVESAGGLVQAGGSLSLSCAASGFIFDGYAMGWYRQAPGKERELVAAINFSGGSTYYADSVKGRFTISRDNAKNTVYLQMNSLKPEDTSVYYCNADLEWYWVQFGYGYWGQGTQVTVSS | low polyreactivity
6 | QVQLVESAGGLVQAGGSLSLSCAASGRIFTDYAMGWYRQAPGKERELVARISRSDGSTYYADSVKGRFSISRDNAKNNVYLQMNSLKAEDTAVYYCAAQWTDGRRDHWWDKGFYYWGLGTQVTVSS | low polyreactivity
7 | QVQLVESAGGLVQAGGTLSLSCAASGSTFYNYAMGWYRQAPGTETELVAAISSGGSTNYADSVKGRFTISRDNAKNTVYLQMNSLKPEDTAVYYCARRHRVYPSRIGHDYWGQGTQVTVSS | low polyreactivity
8 | QVQLVESAGGLVQAGVSLRLSCDASGRIFRHNTMGWYRQAPGKERELVAAIRYSGGRTYYADSVKGRFTISRDNAKNTVYLQMNSLKPEDTAVYYCAKDTGQGYYWGQGTQVTVSS | high polyreactivity
9 | QVQLVESAGGLVQARVSLRLSSAASGRTIPTYTMGWYRQAPGKERELVAAITRGGSTKYADSVKGRFTISRDNAKNTVYLQMNSLKPEDTAVYYCAAVYRYRHSFAYYRHEMDYWGLGTQVTVSS | low polyreactivity
10 | QVQLVESAGGLVQEGGSLRLSCAASGSISAPYAMGWYRQAPGKERELVAAISWRGGRTYYADSVKGRFTISRDNAKNTVYLQMNSLKTEDTAVDYCAAKFRLGQFDYDYWGQGTQVTVSS | high polyreactivity
11 | QVQLVESAGGVVQAGGSLRKSCAASLGWYRQAPGKERELVATITSDAGTNYADSVKGRFTISRDNAKNTVYLQMNSLKPEDTAVYYCAATPPYRVYGVNYWGQGTQVTVSS | low polyreactivity
12 | QVQLVESARGLVQAGGSLRLRCAASGSTLSVYVMGWYRQAPGKERELVAAITRGGSTNYADSVKGRFTISRDNAKNTVYLQINSLNPEDTAVYYCAARSFVYYHHGEGSRSGRYYYWGQGTQVTVSS | high polyreactivity
13 | QVQLVESAVGLVQAGGSRRLSCAASGRTFDSNAMGWYRQAPGKEREFVAAISWSGGSTYYADSVKGRFTISRDNAKNTVYLQMNSLKREETAVYYCNRLGRHAPATRYGYWGLGTQVTVSS | high polyreactivity
14 | QVQLVESCGGIVQAGGSLRLRCAASGLIFVANAMGWYRQAPVKESEMVAAISRYGGITYYADSVKGRFTISRDNAKNTVYLEMNSLKPEDTAVYYCAKNLPSNGHYDYWGQGTQVTVSS | low polyreactivity
15 | QVQLVESCGGIVQAGGSLRLSCAASGSTFRVNAMGWYRHSPGKERELVAAIRKSGGSTYADSVKGRFTISRDNAKNTFNLQMNSLKPEDTGVYYCNADATAWLGLADNYWVQGTQVTVSS | low polyreactivity
16 | QVQLVESCGGLVEAGGSLRLSCAASGSILYSNAMGWYRQGPGKESELVAAIRSGGSTSYADSVKGRFTISRDNANNTVYLQMNSLKPDDTAVYYSAADPSSGVTYGMYYWGQGSQVTVSS | low polyreactivity
17 | QVQLVESCGGLVHAGGSLRLSCAASGITLKWNDMGLYRQAPGKEREFVAAITGSTGSTFYADSVKGRFTISRDNAKNTVYLQMNSLKPEDTAVYYCAAGPWFYYWGQGTQVTVSS | low polyreactivity
18 | QVQLVESCGGLVQAGGILRLSCAASGSTFRYYVMGWYRQAPGKERELVAAITSGGSKYYADSVKGRFTISRDNEQNTVYLQMNSLKPDDTAVYYCNKVYSRTFDYWGQGTQVTVSS | high polyreactivity
19 | QVQLVESCGGLVQAGGILRLSCADYGSIFYYNAMGWYRQAPGKERQLVAAITRSGSTNYAESVKLRFTISRDNAKNTVYLQMNSLKPEDTAVYYCAAPWRGSVFRYYSWGQGTQVTVSS | low polyreactivity
20 | QVQLVESCGGLVQAGGRLRLSCAASGRNFQQYAMGWSRQAPGKERELVAAISRGGSTYYADSVKGRFTISRDNAKNTVYLQMNRLKPEDTAVYYCAARWWRRFSGSHSLYDYWGQGTQVTVSS | high polyreactivity
21 | QVQLVESCGGLVQAGGSHRLSCAASGSTFAYNDMGWYRQAPGKERELVADIRSGGNTNYADSVKGRFTISRDNAKNTVYLQMNSLKPEDTAVYYRATDGYRIDVYHPDYRYDYWGQGTQVTVSS | low polyreactivity
22 | QVQLVESCGGLVQAGGSLRLICAASGSIFFRNAKGWYRQAPGKERELVAAIRYTGTSTYYADSVKGRFTISRDNAKNTVYVQMNSLKPEDTAVYYCAKPWGSVRRREMDYWGQGTQVTVSS | low polyreactivity

Row | Sequence | polyreactivity (PSR sort gate)
23 | QVQLVESCGGLVQAGGSLRLSCAASGFICNGYTMGWSRQAPWKERELVAAISGSGGRTYYADSVKGRFTISRDNAKKTVYLQMNSLKPEDTAVYYCAASNWHSRGSGEYYWGQGTQVTVSS | high polyreactivity
24 | QVQLVESCGGLVQAGGSLRLSCAASGFIFYYYAMGWYRQAPGKERELVAGITRGGSTYYADSVKGRFTISRDNAKNTVYLQMNSLKPEDTAVYYCASTYYLSYTSGTFGKFGYWGQGTQVTVSS | high polyreactivity
25 | QVQLVESCGGLVQAGGSLRLSCAASGIIFRYYAMGWYRQAPGKEREFVASINFSGSSTYYADSVKGRFTISRDNAKNSVYLQMKSLKPEDTAVYYCAAGRRWLYDYWGQGTQVTVSS | high polyreactivity
26 | QVQLVESCGGLVQAGGSLRLSCAASGITYVYYAMGWYRQAPGKERELVAGITSGTSTYYADSVKGRFTISRDNAKNTVYLQINSLKPEDTAVYYCATGYRRGSTYGYWGQGTQVTVSS | low polyreactivity
27 | QVQLVESCGGLVQAGGSLRLSCAASGRTFPAYAMGWSRQAPGKERELVAAISSSGSRTYYADSVKGRFTISRDNAKNTVYLQMNSLKQEDTAVYYCAARGGRRQKVNRDDYWGQGTQVTVSS | high polyreactivity
28 | QVQLVESCGGLVQAGGSLRLSCAASGRTFYKNTMGWYRQAPGKERELVATISQRGGSTYYADSVKGRFTISRDNAKNTVFLQMHSLKPEDTAVYYCNARHYYIWWRSPTRTAMNYWGQGTQVTVSS | high polyreactivity
29 | QVQLVESCGGLVQAGGSLRLSCAASGSTFRFNTMGWYRQPPGKERELVAAITRGGSTNYADSVKGRFTISRDNAKNTVYLQMNSLKPEDTAVYFCAAGYCWTFDYDYWGQGTQVTVSS | low polyreactivity
30 | QVQLVESCGGLVQAGGSLRLSCAASGSTFRTYAMGWYRQAPGKERELVASIDSTGSTNYADSVKGRFTISSDNAKNSVYLQMNSLKPEDTAVYDCAAETYSYPPFYAYDYWGQGTQVTVSS | low polyreactivity
31 | QVQLVESCGGLVQAGGSLRLSCAASGSTFSYNAMGWYRQAPGKEREMVAAITYGGGSTYYADSVKGRFTISRDNAKNTVYLQMNSLKPEDTAVYYCAVEKYGRYRPYSYGYWGQGTQVTVSS | high polyreactivity
32 | QVQLVESCGGLVQAGGSLRLSCAASGSTFVVNAMGGYRQAPGKERELVADISFTGDSTFYADSVKGRFTISRDNAKNTVYLEMNSLKPDDTAVYYCAADFRRVFSKYSYYLYFDFDYWGQGTQVTVSS | low polyreactivity
33 | QVQLVESCGGLVQAGGSLRLSCAASGSTFYRNAMGWYRQAPGKEREFVAAISFRGGGTYADSVKGRFTISRDNAKNTVYLQMNSLKPEDTAVYYCAADHLSYRRRYEYWGQGTQVTVSS | low polyreactivity
34 | QVQLVESCGGLVQAGGSLRLSCAASGSTYAMGWYRQAPGKERELVASITSRGGSTYYADSVKGRFTISRDNAKNTVYLQMNSLKPEDTAVYYCNRVYRYPYNYWGQGTQVTVSS | high polyreactivity
35 | QVQLVESCGGLVQAGGSLRLSCAASGYIFLYNTMGWYRQAPWKERELVAAISFRAGSTYYADSVKGRFTISRDNAMNTVYLQMNSLKPEDTAVYYCAKRQRYYLYGHDYWGQGTQVTVSS | low polyreactivity
36 | QVQLVESCGGLVQAGGSLRLSCAASGYIFVNYAMGWYRQAPGKQRELVARITGSGGSTDYADSVKGRFTISRDNAKNTVYLQMNSLKPEDTAVYYCNTKYVRYLRYYTYKYWGHGTQVTVSS | low polyreactivity
37 | QVQLVESCGGLVQAGGSLRLSCAASGYTFGSNAMGWYRQAPGKERELVAAISTNGGRTNYADSVKGRFTISRDNAKNTVYLQMNSLKPEDTAVYYCNTRLRVRYYLSGFDYWGQGTQVTVSS | high polyreactivity
38 | QVQLVESCGGLVQAGGSLRLSCAATGLTISRNVMGWYRQAPGKEREWVAAISRSGSTYYADSVKGRFTISRDNAKNTVYLQMNSLKPEDTAVYYCAKERYYTGRYSGHDYCGQGTQVTVSS | high polyreactivity
39 | QVQLVESCGGLVQAGGSLRLSCADSGRTFGSYAMGWYRQATRKDRELVASISRSGGTTYYADSVKGRFTLSRDNAKNTVYLQMYSQKPEDTAVYYCAAQYVRYGLYYWGQGTQVTVSS | high polyreactivity
40 | QVQLVESCGGLVQEGGSLRLSSAASGSIRYYALGWYRQAPGKESELVAAISSRGTNTYYADSVKGSITISRDNAKNTVYLQMKSQKPEDTAVYYCNAVVGLGYNYWGQGTQVSVSS | high polyreactivity
41 | QVQLVESCGGLVQPGGSLRLSCAASGSTFTRYGFGWYRQATGKEREMVAAITTSGSSTYYADSVKGRFTISRDNAKYTVYLQMNSLKPEETAVYYGAADWSSWGFDYWGQGTQVTVSS | low polyreactivity
42 | QVQLVESCGVLVQAGGSLRLSCDASGSIFVWNAMGWYREAPGKERELVAAIRSDDDSTYYADSVKGLFTISRDNAKNTVYLQMNCLNPEDTAVINALVDSPTFSHVKPWDGGDYWGQGTQVTVSS | low polyreactivity
43 | QVQLVESDGGIVQAGGSLRLTCAASGIIFGYYVMGWYRQEPGKEGELVASITSGGSTNYADSVKGRFTISRDNAKNTVYLQMNSLKPEDTAVYYCAAEERTDTIACWRYPHDYWGQGTQVTVSS | low polyreactivity
